From patent publication US20130095492A1 come the findings set out here.

The target in experiment [1] is full-length recombinant tau (human) (UniProt P10636). Briefly: sandwich immuno-PCR, Tau1 capture on plate, HT7-DNA conjugate detection, recombinant tau at 16 pg/ml in synthetic serum.
The target is the same in experiment [2]. Briefly: sandwich immuno-PCR, Tau1 capture on plate, HT7-DNA conjugate detection, recombinant tau at 10000 pg/ml in synthetic serum.
Experiment [3] has the same target. Briefly: sandwich immuno-PCR, Tau1 capture on plate, HT7-DNA conjugate detection, recombinant tau at 2000 pg/ml in synthetic serum.
Experiment [4] has the same target. Briefly: sandwich immuno-PCR, Tau1 capture on plate, HT7-DNA conjugate detection, recombinant tau at 0.64 pg/ml in synthetic serum.
For experiment [5] the target is unchanged. In words: sandwich immuno-PCR, Tau1 capture on plate, HT7-DNA conjugate detection, recombinant tau at 80 pg/ml in synthetic serum.
Experiment [6] shares this target. In words: sandwich immuno-PCR, Tau1 capture on plate, HT7-DNA conjugate detection, recombinant tau at 3.2 pg/ml in synthetic serum.
Experiment [7] shares this target. In words: sandwich immuno-PCR, Tau1 capture on plate, HT7-DNA conjugate detection, recombinant tau at 400 pg/ml in synthetic serum.

Chain of UniProt P10636 (P10636 other isoform, or with tags, fused parts or gaps): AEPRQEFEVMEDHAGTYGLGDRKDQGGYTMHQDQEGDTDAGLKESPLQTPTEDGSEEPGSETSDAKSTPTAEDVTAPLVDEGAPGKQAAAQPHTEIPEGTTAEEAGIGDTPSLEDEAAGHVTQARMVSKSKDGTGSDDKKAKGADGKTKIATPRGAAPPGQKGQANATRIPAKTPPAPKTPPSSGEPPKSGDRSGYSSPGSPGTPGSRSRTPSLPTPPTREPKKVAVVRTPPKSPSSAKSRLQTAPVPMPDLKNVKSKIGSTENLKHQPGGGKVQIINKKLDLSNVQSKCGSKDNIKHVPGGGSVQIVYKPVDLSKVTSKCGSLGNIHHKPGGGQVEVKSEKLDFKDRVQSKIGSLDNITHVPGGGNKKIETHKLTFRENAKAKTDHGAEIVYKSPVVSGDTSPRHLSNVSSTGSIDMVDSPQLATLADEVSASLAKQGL

Tau1 (antibody): the delta counts in experiment [1] was determined as 21.7 delta counts; in experiment [2] it was 31.7 delta counts; in experiment [3], 29 delta counts; in experiment [4], 20.3 delta counts; in experiment [5], 23.6 delta counts; in experiment [6] it was 20.6 delta counts. Moreover, the delta counts in experiment [7] stood at 26.3 delta counts.
